Reference: patent US20260240884A1, “MIXTURE OF HUMAN MILK OLIGOSACCHARIDES” (N.V. Nutricia, priority 2023, published 2026)

System: IL-8 secretion of HT-29 cells
Test: IL-8 secretion and viability of HT-29 cells pre-incubated with test compounds and challenged with Lyovec-complexed Poly I:C
Assay type: cell-based, Human

B1: Lactoferrin: lactoferrin, control test compound (protein, UniProt P02788 20-710, looked up)
Lactotransferrin: GRRRSVQWCAVSQPEATKCFQWQRNMRKVRGPPVSCIKRDSPIQCIQAIAENRADAVTLDGGFIYEAGLAPYKLRPVAAEVYGTERQPRTHYYAVAVVKKGGSFQLNELQGLKSCHTGLRRTAGWNVPIGTLRPFLNWTGPPEPIEAAVARFFSASCVPGADKGQFPNLCRLCAGTGENKCAFSSQEPYFSYSGAFKCLRDGAGDVAFIRESTVFEDLSDEAERDEYELLCPDNTRKPVDKFKDCHLARVPSHAVVARSVNGKEDAIWNLLRQAQEKFGKDKSPKFQLFGSPSGQKDLLFKDSAIGFSRVPPRIDSGLYLGSGYFTAIQNLRKSEEEVAARRARVVWCAVGEQELRKCNQWSGLSEGSVTCSSASTTEDCIALVLKGEADAMSLDGGYVYTAGKCGLVPVLAENYKSQQSSDPDPNCVDRPVEGYLAVAVVRRSDTSLTWNSVKGKKSCHTAVDRTAGWNIPMGLLFNQTGSCKFDEYFSQSCAPGSDPRSNLCALCIGDEQGENKCVPNSNERYYGYTGAFRCLAENAGDVAFVKDVTVLQNTDGNNNEAWAKDLKLADFALLCLDGKRKPVTEARSCHLAMAPNHAVVSRMDKVERLKQVLLHQQAKFGRNGSDCPDKFCLFQSETKNLLFNDNTECLARLHGKTTYEKYLGPQYVAGITNLKKCSTSPLLEACEFLRK
Mean IL-8 secretion (0.1% + Poly I:C, Poly I:C alone 21799.28): 9201.69 pg/mL | Mean IL-8 secretion (0.1%, no Poly I:C, Medium 359.54): 343.19 pg/mL
